Measurements taken from patent WO2023190851A1 (dated 2023).

Target: SARS-CoV-2 Spike RBD, His Tag (BA.2/Omicron) (SARS-CoV-2, Omicron BA.2 lineage, UniProt P0DTC2 319-537)

B1: natural human IgG antibody (HIG001677) (antibody, V domains shown)
VH: EVQLVESGGGLVQPGGSLRLACAASGLTVSRNYMNWVRQAPGKGLEWVSLVYPGGSTFYADSVKGRFTISRDNSKNTLYLQMNSLRADDTAVYYCAREVRGRGDYWGQGTLVTVST
VL: DIQMTQSPSSLSASVGDRVTITCQASQDINKYLNWYQQKPGKAPKLLIYDASNLEPGVPSRFSGSGSGTDFTFTISNLQPEDIATYYCQNYDNLPQTFGQGTRLEIKR
Work on B1 yielded a Kd of 8.58 nM.
